Assay results reported in patent US8299213B2, “Synthetic or natural peptides binding protein phosphatase 2A, identification method and uses” (Universite Pierre et Marie Curie (Paris 6), priority 2001, dated 2012).
“Also recorded” adds a separate entry of the source.

Columns and labels:
holoenzyme PP2A1 = target: T1, holoenzyme PP2A1 (Sus scrofa, UniProt P54612); test: SPOT peptide membrane screened with holoenzyme PP2A1; assay type: binding, pig; conditions: for binding to the trimeric holoenzyme PP2A1: peptides on cellulose membrane, 4 μg/ml purified protein, antibodies against proteins A, B and C (FIGS. 1B, 2B)
T1 construct: Trimeric PP2A1 protein was purified to homogeneity from pig brain; from tissue; host or cells: pig brain
Excerpt: Trimeric PP2A1 protein was purified to homogeneity from pig brain.
(§1) Binding peptides derived from CK2α proteins (encoded by T parva protozoa) or Vpr protein (encoded by the HIV-1 virus) with PP2A were identified using the “spot peptides” technique described above (Frank and Overwing, 1996, Meth Mol Biol 66, 149-169).
(§2) The method consisted of synthesizing dodecapeptides, in situ on a cellulose membrane, at defined positions wherein the series of the sequence covered the whole sequence of the protein of interest (Vpr or CK2α). The peptides of two consecutive spots on the membrane overlap with an overlapped by two amino acids.
(§3) Sixty-eight (68) dodecapeptides covering the whole sequence of the Vpr protein of HIV-1 and two hundred and five (205) dodecapeptides covering the sequence for the CK2α protein of Theileria were synthesized and covalently bound to cellulose membranes.
(§4) Each prepared membrane was first saturated for 1 hour at ambient temperature with TBS containing 5% skimmed Régilait (milk) and 3% BSA then incubated overnight in the same buffer in the presence of 4 μg/ml of purified protein (subunit A of PP2A or holoenzyme PP2A1).
(§5) The membranes were washed 5 times for 15 minutes with a conventional TBST buffer (TBS+TWEEN) used for incubation then incubated a further 1 hour at ambient temperature with a second antibody (coupled with peroxidase).

Hela cells [1] = test: Cell viability test (MTT); assay type: cell-based, human; conditions: 72 h, increasing peptide concentrations (FIG. 4)
Method: Hela cells (10^4 for 100 μl) were seeded into 96-well plates (flat bases) with complete DMEM medium containing 2.5% penicillin/ampicillin and 10% foetal calf serum. After incubating overnight at 37° C. in a CO2 oven (5%), the cells were cultivated in the presence of different peptide concentrations. After incubating for 72 h, the medium containing the peptides was aspirated and the MTT at 0.5 mg/ml (diluted in DMEM alone) was added in an amount of 100 μl per well. Incubation was carried out in the dark at 37° C. for 30 minutes then the MTT was aspirated off and 50 μl of DMSO was added to all wells. It was necessary to wait ten minutes for complete lysis of the cells and to agitate the lysate well to homogenize dissolution of the reaction product in the wells. The plates were then read at 570 nm with a 690 nm reference filter.

subunit A of PP2A = target: T2, subunit A of PP2A (Homo sapiens, UniProt P30153); test: SPOT peptide membrane screened with structural subunit A of PP2A; assay type: binding; conditions: peptides on cellulose membrane, 4 μg/ml purified protein, antibody against protein A (FIGS. 1A, 2A)
T2 construct: made in house; host or cells: E. coli
Excerpt: A recombinant structural subunit of PP2A was expressed in E. coli and purified using the protocol described by Cohen et al (Cohen P, Alemany S, Hemmings B A, Resink T J, Stralfors P, Tung H Y. Protein phosphatase-1 and protein phosphatase 2A from rabbit skeletal muscle. Methods Enzymol 1988 159, 390-408), or that described by Bosch et al (Bosch M, Cayla X, Van Hoof C, Hemmings B A, Ozon R, Merlevede W, Goris J. the PR55 and PR65 subunits of protein phosphatase 2A from Xenopus laevis. Molecular cloning and developmental regulation of expression. Eur J Biochem 1995, 230, 1037-45).
as §1, §2, §3, §4, §5

Hela cells [2] = test: Cell penetration test (biotinylated peptide-avidine peroxidase complexes); assay type: cell-based, human; conditions: biotinylated peptides, 4 hours incubation (FIG. 3)
Method: We analyzed the Hela line, which is derived from a human cervical carcinoma.
0.1 M Tris buffer, pH 8 containing 0.5% NP40.
25.7 ml of 0.2 M dibasic sodium phosphate+24.3 ml of 0.1 M citric acid+50 ml distilled water; adjust to pH 5.0.
4 moles of peptides were incubated with 1 mole of avidine-peroxidase. 20 minutes at ambient temperature.
Hela cells (10^4 in […]) were seeded into 96-well plates (flat bases) with complete DMEM medium in the presence of 2.5% penicillin/ampicillin and 10% foetal calf serum. After incubating overnight at 37° C. in a CO2 oven (5%), different dilutions of complexes (biotinylated-avidine peroxidase peptides) were added. After incubating for 4 hours the supernatant was aspirated and the cells were washed 3 times with PBS, trypsinated and taken up for counting in PBS. After counting, the cells were taken up in 300 μl of lysis buffer.
50 μl of OPD buffer was incubated in a 96 well ELISA plate with 50 μl of lysis buffer or 50 μl of cell lysate (in general, different successive dilutions were carried out (to ½)). In order to reveal, 50 μl of OPD solution was added (in the dark). The reaction (about 10 min) was stopped with 100 μl of 1N HCl.
The peroxidase activity was determined by reading at 490 nm in the ELISA reader (reference filter at 620 nm) and the quantity of peroxidase in the lysates was calculated from the calibration curve then extrapolated to the same number of cells (10^3 or 10^4): Peptide molecules=(6*10^23/MW of peptide)*ng of PO*10^−9. A.4. Cell Viability Test

T1 sequence (P54612 whole entry): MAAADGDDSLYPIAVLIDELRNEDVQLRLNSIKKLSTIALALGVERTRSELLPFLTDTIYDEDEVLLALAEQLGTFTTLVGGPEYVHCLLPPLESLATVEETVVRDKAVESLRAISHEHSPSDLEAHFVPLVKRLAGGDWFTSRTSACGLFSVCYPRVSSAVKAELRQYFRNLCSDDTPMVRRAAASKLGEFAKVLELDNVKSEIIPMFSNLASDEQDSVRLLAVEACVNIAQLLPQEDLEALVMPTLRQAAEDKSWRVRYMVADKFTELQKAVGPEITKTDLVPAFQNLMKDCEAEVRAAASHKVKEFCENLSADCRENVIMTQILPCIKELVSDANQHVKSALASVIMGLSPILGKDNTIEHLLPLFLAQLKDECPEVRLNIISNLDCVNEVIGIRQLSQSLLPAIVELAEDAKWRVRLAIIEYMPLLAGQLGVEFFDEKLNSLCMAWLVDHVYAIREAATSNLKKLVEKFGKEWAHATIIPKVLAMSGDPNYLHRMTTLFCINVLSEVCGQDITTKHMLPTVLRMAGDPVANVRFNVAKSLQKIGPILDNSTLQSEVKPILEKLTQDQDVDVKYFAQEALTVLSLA
T1 sequence (P67776 whole entry partner): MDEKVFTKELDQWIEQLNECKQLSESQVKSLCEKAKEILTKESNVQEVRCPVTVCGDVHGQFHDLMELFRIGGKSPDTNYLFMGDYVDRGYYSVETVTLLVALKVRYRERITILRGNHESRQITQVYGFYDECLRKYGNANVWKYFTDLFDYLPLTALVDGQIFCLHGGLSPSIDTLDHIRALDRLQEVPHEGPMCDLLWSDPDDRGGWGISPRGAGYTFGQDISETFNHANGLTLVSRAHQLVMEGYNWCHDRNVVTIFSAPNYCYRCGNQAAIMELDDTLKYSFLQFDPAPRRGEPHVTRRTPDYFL
T2 sequence (P30153 whole entry): as the sequence (P54612 whole entry) above, with T324S counted along it

Substance | binding to the structural subunit A of PP2A (subunit A of PP2A) | intracellular penetration into Hela cells (Hela cells [2]) | other results
RHSRIGIIQQRRTRNG [FD14] | containing a binding site | possibility of penetrating into the Hela cell; also recorded: penetrating peptides | binding to the trimeric holoenzyme PP2A1 (holoenzyme PP2A1): containing a binding site; effect on viability of Hela cells (Hela cells [1]): clearly affects the viability of Hela cells
VEALIRILQQLLFIHFRI [HIV-1 Vpr site 2] | containing a binding site | – | –
IGIIQQRRTRNG (Human immunodeficiency virus) [SEQ ID No: 12] | binding the subunit A of PP2A | – | –
VKKKKIKREIKI (listed as Theileria parva) [FD6] | – | possibility of penetrating into the Hela cell | effect on viability of Hela cells (Hela cells [1]): does not affect the viability
(AHSRIG)3 (AHSRIGAHSRIGAHSRIG; listed as Theileria parva) [FD12] | – | – | effect on viability of Hela cells (Hela cells [1]): affects the viability of the Hela cell
TVTKDKCVIKILKPVKKKKIKREIKILQNL (listed as Theileria parva) [T parva CK2α site 2] | containing a binding site | – | –
(RQKRLI)3 (RQKRLIRQKRLIRQKRLI; listed as Theileria parva) [FD7] | – | possibility of penetrating into the Hela cell | –
ILQQLLFIHFRI (Human immunodeficiency virus) [SEQ ID No: 9] | binding the subunit A of PP2A | – | –
VEALIRILQQLL [SEQ ID No: 6] | binding the subunit A of PP2A | – | –
SRIGIIQQRRTR (Human immunodeficiency virus) [SEQ ID No: 11] | binding the subunit A of PP2A | – | –
RHSRIGIIQQRR (Human immunodeficiency virus) [SEQ ID No: 10] | binding the subunit A of PP2A | – | –
RHSRIGVTRQRRARNG [FD13] | – | possibility of penetrating into the Hela cell | effect on viability of Hela cells (Hela cells [1]): absence of the biological effect
LIDWGLAEFYHP (listed as Theileria parva) [peptide 131] | – | – | binding PP2A (holoenzyme PP2A1; FIG. 2, subunit A or holoenzyme not given): capable of binding PP2A
RKIGRGKFSEVFEG (listed as Theileria parva) [T parva CK2α site 1] | containing a binding site | – | –
IRILQQLLFIHF (Human immunodeficiency virus) [SEQ ID No: 8] | binding the subunit A of PP2A | – | –
(RHSRIG)3 (RHSRIGRHSRIGRHSRIG; listed as Theileria parva) [FD11] | – | possibility of penetrating into the Hela cell | –
ALIRILQQLLFI (Human immunodeficiency virus) [SEQ ID No: 7] | binding the subunit A of PP2A | – | –
KILRLIDWGLAEFYHP (listed as Theileria parva) [T parva CK2α site 3] | containing a binding site | – | binding to the trimeric holoenzyme PP2A1 (holoenzyme PP2A1): containing a binding site
RRRRRRRSRGRRRRTY (listed as Theileria parva) [FD8, peptide derived from protamine] | – | possibility of penetrating into the Hela cell; also recorded: penetrating peptides | effect on viability of Hela cells (Hela cells [1]): affects the viability of Hela cells
